Measured values taken from publication PMC6262836.
Several values for one entry are separate records, joined by “and”; a condition that tells them apart may be missing. Identical values can stand only once. Like-named read-outs stand apart in the source and are kept apart here.

What was measured:
Experiment in all cases: SPR
[1] = target: Recombinant human VEGFR-1 Fc chimera (human) (UniProt P17948)
[2] = target: Recombinant human VEGFR-2 Fc chimera (human) (UniProt P35968)
[3] = target: Recombinant human VEGFR-2 Fc chimera (human) (UniProt P35968); remark: listed apart in the source
[4] = target: Recombinant human VEGFR-1 Fc chimera (human) (UniProt P17948); remark: listed apart in the source
[5] = target: Recombinant human VEGFR-2 Fc chimera (human) (UniProt P35968); remark: listed apart in the source
[6] = target: Recombinant human VEGFR-1 Fc chimera (human) (UniProt P17948); remark: listed apart in the source
[7] = target: Recombinant mouse neuropilin-1 (NRP-1 monomer) (mouse) (UniProt P97333)
UniProt P97333, sequence (P97333 22-856): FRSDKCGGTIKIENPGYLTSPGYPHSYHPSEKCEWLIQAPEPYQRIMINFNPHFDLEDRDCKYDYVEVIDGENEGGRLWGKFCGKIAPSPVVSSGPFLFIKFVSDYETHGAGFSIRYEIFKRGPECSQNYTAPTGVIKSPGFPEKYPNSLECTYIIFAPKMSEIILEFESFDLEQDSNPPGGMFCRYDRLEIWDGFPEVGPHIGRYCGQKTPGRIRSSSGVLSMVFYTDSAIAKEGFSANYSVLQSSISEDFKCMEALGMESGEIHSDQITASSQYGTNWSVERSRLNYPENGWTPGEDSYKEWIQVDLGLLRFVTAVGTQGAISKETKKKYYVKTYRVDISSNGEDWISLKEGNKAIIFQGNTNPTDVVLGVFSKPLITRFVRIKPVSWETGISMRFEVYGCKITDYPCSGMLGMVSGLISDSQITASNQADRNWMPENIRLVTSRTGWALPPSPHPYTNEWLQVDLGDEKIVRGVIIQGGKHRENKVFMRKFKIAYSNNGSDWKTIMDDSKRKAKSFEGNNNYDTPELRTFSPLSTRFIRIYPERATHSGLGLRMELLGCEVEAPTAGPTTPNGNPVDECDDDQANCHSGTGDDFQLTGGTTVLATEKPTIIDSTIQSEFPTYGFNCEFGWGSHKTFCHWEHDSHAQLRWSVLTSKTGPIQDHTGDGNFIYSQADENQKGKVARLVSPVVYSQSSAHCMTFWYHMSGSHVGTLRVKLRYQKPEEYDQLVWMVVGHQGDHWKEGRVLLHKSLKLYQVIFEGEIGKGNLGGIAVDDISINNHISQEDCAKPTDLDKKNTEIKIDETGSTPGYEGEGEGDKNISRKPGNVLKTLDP

[8] = target: Recombinant human VEGFR-2 Fc chimera (human) (UniProt P35968); remark: listed apart in the source
[9] = target: Recombinant mouse neuropilin-1 (NRP-1 monomer) (mouse) (UniProt P97333); remark: listed apart in the source

UniProt P35968, sequence (P35968 20-764, change not shown): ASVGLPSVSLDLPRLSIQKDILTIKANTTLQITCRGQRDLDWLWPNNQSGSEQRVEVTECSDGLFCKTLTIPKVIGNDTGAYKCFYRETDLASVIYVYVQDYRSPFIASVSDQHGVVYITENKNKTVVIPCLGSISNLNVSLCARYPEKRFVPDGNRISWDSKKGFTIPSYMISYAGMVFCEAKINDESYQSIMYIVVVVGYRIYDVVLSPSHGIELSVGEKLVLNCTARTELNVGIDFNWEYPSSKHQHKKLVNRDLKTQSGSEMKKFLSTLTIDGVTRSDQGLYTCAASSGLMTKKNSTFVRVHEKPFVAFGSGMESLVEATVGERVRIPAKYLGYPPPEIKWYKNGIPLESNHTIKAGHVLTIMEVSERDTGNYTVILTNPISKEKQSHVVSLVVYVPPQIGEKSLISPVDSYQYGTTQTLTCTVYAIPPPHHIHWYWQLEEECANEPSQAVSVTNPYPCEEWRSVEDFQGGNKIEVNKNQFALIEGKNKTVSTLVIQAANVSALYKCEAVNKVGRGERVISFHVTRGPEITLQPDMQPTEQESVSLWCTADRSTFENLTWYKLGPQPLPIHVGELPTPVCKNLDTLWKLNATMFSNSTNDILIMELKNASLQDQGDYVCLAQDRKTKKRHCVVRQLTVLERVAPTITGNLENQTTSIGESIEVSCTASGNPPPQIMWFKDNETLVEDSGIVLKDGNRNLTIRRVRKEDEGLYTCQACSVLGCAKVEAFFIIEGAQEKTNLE
UniProt P17948, sequence (P17948 27-758, change not shown): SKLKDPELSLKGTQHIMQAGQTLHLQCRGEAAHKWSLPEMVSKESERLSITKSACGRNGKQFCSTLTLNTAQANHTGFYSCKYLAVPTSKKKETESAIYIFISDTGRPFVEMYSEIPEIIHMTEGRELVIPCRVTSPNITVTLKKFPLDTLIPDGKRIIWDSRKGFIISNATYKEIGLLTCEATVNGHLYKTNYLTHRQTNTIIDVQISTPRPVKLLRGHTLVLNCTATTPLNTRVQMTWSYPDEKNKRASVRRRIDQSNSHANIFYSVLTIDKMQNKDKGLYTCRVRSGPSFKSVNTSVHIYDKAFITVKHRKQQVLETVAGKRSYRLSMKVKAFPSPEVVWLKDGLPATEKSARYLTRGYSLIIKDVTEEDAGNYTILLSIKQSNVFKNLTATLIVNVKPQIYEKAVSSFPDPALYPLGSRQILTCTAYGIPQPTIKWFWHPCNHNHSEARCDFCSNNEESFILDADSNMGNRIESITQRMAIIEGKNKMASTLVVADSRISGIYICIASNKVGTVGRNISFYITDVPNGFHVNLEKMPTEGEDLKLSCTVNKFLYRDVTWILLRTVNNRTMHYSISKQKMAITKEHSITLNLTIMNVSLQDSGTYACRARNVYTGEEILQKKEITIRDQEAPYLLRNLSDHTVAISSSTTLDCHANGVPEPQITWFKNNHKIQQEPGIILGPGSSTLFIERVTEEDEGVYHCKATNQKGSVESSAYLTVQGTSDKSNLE

Row | Substance | Kd [1] | Kd [2] | kon [3] | Kd [4] | koff [4] | kon [4] | Kd [5] | kon [5] | Kd [6] | Kd [7] | Kd [8] | Kd [9] | koff [9] | kon [9] | koff [5]
1 | Recombinant human VEGF121 (ligand) | 7.2 nM | 17 nM | 547000 M⁻¹ s⁻¹ | 6.2 nM | 0.0088 s⁻¹ | 1.43e+06 M⁻¹ s⁻¹ | 5.5 nM | 5.47e+06 M⁻¹ s⁻¹ | – | – | – | – | – | – | –
2 | Recombinant human VEGF165 (ligand) | – | – | – | 0.196 nM | 0.000569 s⁻¹ and 0.000592 s⁻¹ | 2.91e+06 M⁻¹ s⁻¹ | 8.6 nM | 1.76e+06 M⁻¹ s⁻¹ | 3.7 nM | 28 nM | 18 nM | 25 nM | 0.065 s⁻¹ | 2.64e+06 M⁻¹ s⁻¹ | 0.0151 s⁻¹
